Laboratory results published in paper PMC12229497, “The intracellular bacterium Orientia tsutsugamushi uses the autotransporter ScaC to activate BICD adaptors for dynein-based motility” (Nature Communications, 2025).
Substitutions are numbered along the chain they refer to. Names may count otherwise.

B1: Strep-BICD2^711–800 (CC3 domain) (domain or fragment, mouse, UniProt Q921C5 711-800, looked up)
chain: YENEKAMVTETMMKLRNELKALKEDAATFSSLRAMFATRCDEYITQLDEMQRQLAAAEDEKKTLNSLLRMAIQQKLALTQRLELLELDHE
notes: also called CC3 of BICD2; not shown: Strep, N-terminal, kept
B2: Strep-BICD2^711–800 L742A/L786A (domain or fragment, mouse, UniProt Q921C5 711-800, looked up)
chain: B1 chain with L32A, L76A
notes: also called double L742A/L786A mutant; not shown: Strep, N-terminal, kept
B3: Strep-BICD2^711–800 L786A (domain or fragment, mouse, UniProt Q921C5 711-800, looked up)
chain: B1 chain with L76A
notes: not shown: Strep, N-terminal, kept
B4: Strep-BICD2^711–800 L742A (domain or fragment, mouse, UniProt Q921C5 711-800, looked up)
chain: B1 chain with L32A
notes: as for B3
B5: ScaC^50–159 (domain or fragment)
chain: LRKDIAEVSKLLCMLEKSTASSKNLTMRLQQSDTRENEQSNHIRLLITEIESINKENDCLRQKNNQLKIKLHQLKVKLEQALARNTDLQQILPKSQAEMDNLRKQNEQLK
notes: source: SoluBL21 E. coli, purified (StrepTactin, Superdex 200)
B6: ScaC passenger domain (residues 33–223), C-terminal TEV-6His (domain or fragment)
chain: VSNMNLDISNMGEAREGLRKDIAEVSKLLCMLEKSTASSKNLTMRLQQSDTRENEQSNHIRLLITEIESINKENDCLRQKNNQLKIKLHQLKVKLEQALARNTDLQQILPKSQAEMDNLRKQNEQLKIQLQQLQVKLQDLMSLQNKCSNLALINSVKLNYIRDIKYIALANIVIVKALASTFTEKLSKSNR
notes: source: SoluBL21 E. coli, purified (Ni-NTA, MonoQ, Superdex 200)
B7: ScaC-AF647 (ScaC-SNAP labelled with SNAP-Surface Alexa Fluor 647) (domain or fragment)
chain: B6 chain
modifications: Alexa Fluor 647 on the SNAP tag (SNAP-Surface Alexa Fluor 647)
notes: source: SoluBL21 E. coli, purified (Ni-NTA, MonoQ, labelling, Superdex 200)

How the values were obtained:
[1] = biological target: T1, GCN4-RANBP2^min (RANBP2 residues 2148–2240 fused to an N-terminal GCN4 dimerization tag) (human, UniProt P49792 2148-2240); assay: pull-down; conditions: both partners purified
T1 construct: not shown: GCN4 dimerization tag, N-terminal, kept
T1 sequence (P49792 2148-2240): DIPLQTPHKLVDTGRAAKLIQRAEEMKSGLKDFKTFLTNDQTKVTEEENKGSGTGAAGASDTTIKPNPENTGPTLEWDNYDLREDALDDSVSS

[2] = biological target: T2, RAB6^Q72L (GTP-locked RAB6 mutant) (human, UniProt P20340 1-208, Q72L); assay: pull-down; conditions: both partners purified
T2 construct: source: SoluBL21 E. coli, purified (Glutathione Sepharose, GST cleaved, Superose 6, with 10 μM GTP); not shown: GST, N-terminal, cleaved
T2 sequence (P20340 whole entry Q72L): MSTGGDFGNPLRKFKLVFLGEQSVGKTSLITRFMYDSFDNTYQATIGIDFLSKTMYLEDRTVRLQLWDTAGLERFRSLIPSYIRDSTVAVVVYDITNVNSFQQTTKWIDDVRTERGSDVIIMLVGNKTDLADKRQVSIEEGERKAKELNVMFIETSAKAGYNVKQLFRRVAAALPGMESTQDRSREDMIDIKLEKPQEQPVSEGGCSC

[3] = biological target: B6; assay: SEC; reconstitution: BICD2 and ScaC constructs mixed in a 1:2 molar ratio, 15 min on ice, Superose 6 Increase 3.2/300 in GF150 buffer; fractions on SDS-PAGE; conditions: both partners purified
[4] = biological target: B6; assay: pull-down; conditions: both partners purified
BICD2, full-length mouse [5] = biological target: T3, BICD2, full-length mouse (mouse, UniProt Q921C5 1-820); assay: SEC; reconstitution: BICD2 and ScaC constructs mixed in a 1:2 molar ratio, 15 min on ice, Superose 6 Increase 3.2/300 in GF150 buffer; fractions on SDS-PAGE; conditions: both partners purified
T3 construct: also called full-length BICD2
T3 sequence (Q921C5 whole entry): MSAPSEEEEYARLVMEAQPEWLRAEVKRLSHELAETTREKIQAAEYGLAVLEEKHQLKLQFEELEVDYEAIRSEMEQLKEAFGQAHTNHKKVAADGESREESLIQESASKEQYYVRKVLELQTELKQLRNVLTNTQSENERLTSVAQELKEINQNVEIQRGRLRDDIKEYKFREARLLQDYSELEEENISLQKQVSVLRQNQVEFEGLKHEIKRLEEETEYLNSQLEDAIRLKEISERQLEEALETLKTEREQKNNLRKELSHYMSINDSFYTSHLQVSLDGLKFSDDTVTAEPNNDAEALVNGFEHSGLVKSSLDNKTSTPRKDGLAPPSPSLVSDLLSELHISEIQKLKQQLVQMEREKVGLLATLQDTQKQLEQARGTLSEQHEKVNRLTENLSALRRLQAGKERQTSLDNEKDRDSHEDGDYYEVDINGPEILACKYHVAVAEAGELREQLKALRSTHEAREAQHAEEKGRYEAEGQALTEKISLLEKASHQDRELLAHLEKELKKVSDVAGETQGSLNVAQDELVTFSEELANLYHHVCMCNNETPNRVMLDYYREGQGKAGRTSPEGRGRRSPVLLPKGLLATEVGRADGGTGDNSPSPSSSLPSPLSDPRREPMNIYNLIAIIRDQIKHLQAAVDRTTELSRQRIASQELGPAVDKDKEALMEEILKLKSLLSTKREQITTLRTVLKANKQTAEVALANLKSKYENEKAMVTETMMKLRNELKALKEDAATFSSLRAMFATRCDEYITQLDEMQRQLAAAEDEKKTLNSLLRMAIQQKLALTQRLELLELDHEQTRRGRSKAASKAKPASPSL

BICD2, full-length mouse [6] = biological target: T3, BICD2, full-length mouse; assay: SEC-MALS; 1 mg/mL, Superose 6 10/300, GF150 buffer, 0.5 ml/min; conditions: both partners purified
[7] = biological target: the molecule itself; assay: as above
[8] = biological target: T4, BICD2-AF488 (BICD2-SNAP labelled with SNAP-Surface Alexa Fluor 488) (mouse, UniProt Q921C5 1-820, Alexa Fluor 488 on the SNAP tag (SNAP-Surface Alexa Fluor 488)); assay: single-molecule TIRF dual-colour co-migration on microtubules; conditions: both partners purified
T4 construct: also called BICD2-488; not shown: SNAP, C-terminal, kept
T4 sequence (Q921C5 whole entry): as above

B1
binding result [1]: binds
binding result [2]: binds
binding result [3]: binds

B2
binding result [4]: binds

B3
binding result [4]: binds

B4
binding result [4]: binds

B5
binding result (BICD2, full-length mouse [5]): binds

B6
stoichiometry N (BICD2, full-length mouse [6]): 1 ScaC:BICD2 (2:2)
stoichiometry N [7]: 2

B7
binding result [8]: binds
